Experimental findings from the supplement of paper PMC11865577 are described below.

What all share (experiment): pull-down binding Z-score (relative to library population); higher = stronger binding
Common to all, as to settings: RNA library: Library-2

Data set [1] deals with TO-3-N3 (biotin conjugate). Put shortly: (§1)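 Biotin-conjugated small molecule (100 pmol) on streptavidin beads was incubated with 1 μg of heat-folded Cy5- or Cy3-end-labelled RNA library in phosphate/NaCl/KCl buffer at 25 °C for 60 min. Following three washes, RNA was eluted with hot SDS and hybridised at 55.5 °C for 20 h to a DNA barcode microarray. The binding value is a Z-score computed from the library mean and standard deviation, after subtraction of beads without compound and averaging of barcoded replicate probes with the highest and lowest excluded.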

Data set [2] has as its system TO-3-N3-2 (biotin conjugate). Put shortly: as §1
The test system of the next data set is TO-N3 (biotin conjugate). In short, it runs like this:
as §1

The subject of data set [3] is TO-N3-2 (biotin conjugate). In short, it runs like this: as §1

In the case of “GGCCUUGAAGCC [SHAPE_invitro_SARS-CoV-2_Motif_466]”, the “pull-down binding Z-score” value in data set [1] is -0.406; in data set [2] it was -0.216; with TO-N3 (biotin conjugate) it was -0.703; in data set [3], -0.459.

Consider ACCAUUCUUCGUAAGGGUGGU, for which the “pull-down binding Z-score” value in data set [1] is -0.172; in data set [2], -0.207; in the data set with TO-N3 (biotin conjugate), -0.223; in data set [3] it was -0.847.

“AAUCAAAAAGAGUUGAUU [DMSMaPseq_invitro_SARS-CoV-2_Motif_439]”: the “pull-down binding Z-score” value is -0.396 in data set [1], -0.434 in data set [2], -0.416 with TO-N3 (biotin conjugate) and -1.22 in data set [3].

Regarding UGUCCGUGAUCCACAGACA, the “pull-down binding Z-score” value in data set [1] was -0.695; in data set [2] it was -0.597; with TO-N3 (biotin conjugate) it was -0.9; in data set [3], -0.685.

In the case of UAGUUUUAAGGAAUUA, the “pull-down binding Z-score” value in data set [1] is -0.826; in data set [2], -0.519; in the data set on TO-N3 (biotin conjugate), -1.1; in data set [3], -1.56.

Regarding “UCUGCUCGCAUAGUGUAUACAGCUUGCUCUCAUGCCGCUGUUGAUGCACUAUGUGAGAAGGCAUUAAAAUAUUUGCCUAUAGA”, the “pull-down binding Z-score” value in data set [1] is -0.598; in data set [2], -0.447; in the data set with TO-N3 (biotin conjugate), -0.615; in data set [3], -0.0527.

“GUUAGUACAACUACUAAC [SHAPE_invivo_SARS-CoV-2_Motif_138]”: the “pull-down binding Z-score” value in data set [1] was -0.759; in data set [2], -0.398; in the data set on TO-N3 (biotin conjugate), -1.06; in data set [3] it was -0.963.

Consider “GCCGGUAGCACACCUUGUAAUGGUGUUGAAGGU [SHAPE_invitro_SARS-CoV-2_Motif_416]”, for which the “pull-down binding Z-score” value in data set [1] was 0.478; in data set [2] it was -0.509; in the data set with TO-N3 (biotin conjugate) it was 0.452; in data set [3] it was 0.332.

In the case of “GCCAUUUGUCAUGAUGGAAAAGCACACUUUCCUCGUGAAGGUGUCUUUGUUUCAAAUGGC”, the “pull-down binding Z-score” value in data set [1] is -1.16; in data set [2], -0.592; in the data set with TO-N3 (biotin conjugate) it was -1.39; in data set [3], -0.949.

For “GCACUGACUUGCUUUAGCACUCAAUUUGCUUUUGCUUGUCCUGACGGCGUAAAACACGUCUAUCAGUUACGUGC”, the “pull-down binding Z-score” value is 0.239 in data set [1], -0.234 in data set [2], 0.281 in the data set on TO-N3 (biotin conjugate) and -0.056 in data set [3].

For the sequence GCAGGAGCCUUAAAUAAGGCUACUAACAAUGC, the “pull-down binding Z-score” value in data set [1] is 0.214; in data set [2] it was -0.0703; in the data set on TO-N3 (biotin conjugate), 0.0366; in data set [3], -0.521.

Regarding “CUCUUGAGUGCAUUAAAGACCUUCUAGCACGUGCUGGUAAAGCUUCAUGCACUUUGUCCGAACAACUGGACUUUAUUGACACUAAGAG [SHAPE_invitro_SARS-CoV-2_Multi_69_ComplexLevel_1]”, the “pull-down binding Z-score” value in data set [1] is -0.706; in data set [2], -0.197; in the data set on TO-N3 (biotin conjugate), -0.515; in data set [3] it was 0.585.

As to “GACGACUACUAGCGUGCCUUUGUAAGCACAAGCUGAUGAGUACGAACUUAUGUACUCAUUCGUU [SHAPE_invivo_SARS-CoV-2_Multi_65_ComplexLevel_1]”, the “pull-down binding Z-score” value in data set [1] was determined as 0.114; in data set [2], 0.0759; in the data set with TO-N3 (biotin conjugate), 0.417; in data set [3], 0.764.

As to “CUCUGGAACACUUUUACAAGACUUCAGAG [SHAPE_invivo_SARS-CoV-2_Motif_367]”, the “pull-down binding Z-score” value is -0.0115 in data set [1], -0.651 in data set [2], -0.338 in the data set with TO-N3 (biotin conjugate) and -0.513 in data set [3].

As for “CGUUCGGAUGCUCGAACUGCACCUCAUGGUCAUGUUAUGGUUGAGCUGGUAGCAGAACUCGAAGGCAUUCAGUACG [SHAPE_invitro_SARS-CoV-2_Motif_11]”, the “pull-down binding Z-score” value was -0.289 in data set [1], -0.454 in data set [2], 0.0804 with TO-N3 (biotin conjugate) and 1.57 in data set [3].

Take “GCCACUAGUCUCUAGUCAGUGUGUUAAUCUUACAACCAGAACUCAAUUACCCCCUGCAUACACUAAUUCUUUCACACGUGGU [SHAPE_invivo_SARS-CoV-2_Motif_403]”: the “pull-down binding Z-score” value in data set [1] is -0.0417; in data set [2], 0.101; with TO-N3 (biotin conjugate), 0.388; in data set [3], 0.688.

As for “AAUGUAGUAGAAUUAUACCUGCACGUGCUCGUGUAGAGUGUUUUGAUAAAUUCAAAGUGAAUUCAACAUUAGAACAGUAUGUCUUUUGUACUGUAAAUGCAUU”, the “pull-down binding Z-score” value in data set [1] was 0.059; in data set [2], 0.0794; with TO-N3 (biotin conjugate), 0.182; in data set [3] it was -0.209.

In the case of “GUUCUUGUAUGUGAGAAC [IAV_invivo_PA_3_Motif_23+IAV_invivo_PA_3_Motif_23]”, the “pull-down binding Z-score” value in data set [1] was -0.598; in data set [2] it was -0.614; in the data set with TO-N3 (biotin conjugate), -0.949; in data set [3], -1.09.

Turning to “UGUGGAAAGGGCUAUCAUCUUAUGUCCUUCCCUCA [DMSMaPseq_invitro_SARS-CoV-2_Motif_440]”, the “pull-down binding Z-score” value is -0.089 in data set [1], -0.0817 in data set [2], -0.154 in the data set on TO-N3 (biotin conjugate) and -0.837 in data set [3].

In the case of “CCUCUAAAAGCCCCAAAAGAAAUUAUCUUCUUAGAGGGAGAAACACUUCCCACAGAAGUGUUAACAGAGG”, the “pull-down binding Z-score” value in data set [1] is -0.556; in data set [2] it was -0.139; in the data set with TO-N3 (biotin conjugate) it was -0.162; in data set [3], 0.314.

“CACCAUCUGGUG [DMSMaPseq_invitro_SARS-CoV-2_Motif_188]”: the “pull-down binding Z-score” value in data set [1] is 0.319; in data set [2], -0.158; in the data set with TO-N3 (biotin conjugate) it was 0.0701; in data set [3] it was -1.15.

Regarding “GCGCUUUAGGUCUACACGGGCCGAAGCUAACGCGUUAAGCGC [3-way model-5_mrRNA]”, the “pull-down binding Z-score” value was 0.146 in data set [1], 0.0632 in data set [2], 0.0607 in the data set with TO-N3 (biotin conjugate) and 0.245 in data set [3].

Regarding “UGCCGACUACUAUAGCAAAGAAUACUGUUAAGAGUGUCGGUA”, the “pull-down binding Z-score” value in data set [1] is -0.357; in data set [2] it was -0.206; in the data set on TO-N3 (biotin conjugate) it was -0.385; in data set [3] it was -0.182.
